B1: anti-HER3 human antibody U1-59 (antibody, human IgG1, kappa, V domains shown)
VH: QVQLQQWGAGLLKPSETLSLTCAVYGGSFSGYYWSWIRQPPGKGLEWIGEINHSGSTNYNPSLKSRVTISVETSKNQFSLKLSSVTAADTAVYYCARDKWTWYFDLWGRGTLVTVSS
VL: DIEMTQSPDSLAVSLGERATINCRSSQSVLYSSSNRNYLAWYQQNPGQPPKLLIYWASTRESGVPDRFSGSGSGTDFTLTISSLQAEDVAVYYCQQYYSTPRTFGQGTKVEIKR
notes: also called non-conjugated anti-HER3 antibody U1-59
B2: Antibody-drug conjugate (3) (antibody, human IgG1, kappa, V domains shown)
VH: B1 VH
VL: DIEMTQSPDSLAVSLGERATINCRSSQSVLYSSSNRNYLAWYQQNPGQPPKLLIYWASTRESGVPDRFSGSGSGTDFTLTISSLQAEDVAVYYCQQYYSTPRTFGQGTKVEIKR
modifications: may carry the same drug-linker on a cysteine (L chain bound to one drug molecule); position not stated; exatecan drug-linker -(Succinimid-3-yl-N)-CH2CH2CH2CH2CH2-C(=O)-GGFG-NH-CH2CH2CH2-C(=O)-(NH-DX), joined by thioether bonds to cysteines freed by reducing the hinge disulfide bonds; average 4.9 drug molecules per antibody (UV method); positions not given
notes: also called ADC (3)
B3: Antibody-drug conjugate (13) (antibody, human IgG1, kappa, V domains shown)
VH: B1 VH
VL: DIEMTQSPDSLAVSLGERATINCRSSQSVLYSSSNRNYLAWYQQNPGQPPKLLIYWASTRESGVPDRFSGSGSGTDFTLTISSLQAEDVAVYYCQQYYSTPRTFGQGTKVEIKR
modifications: may carry the same drug-linker on a cysteine (L chain bound to one drug molecule); position not stated; exatecan drug-linker -(Succinimid-3-yl-N)-CH2CH2CH2CH2CH2-C(=O)-GGFG-NH-CH2-O-CH2-C(=O)-(NH-DX), joined by thioether bonds to cysteines freed by reducing the hinge disulfide bonds; average 6.2 (procedure E) or 7.0 (procedure F) drug molecules per antibody; positions not given
notes: also called ADC (13)

Biological target: T1, human epidermal growth factor receptor 3 (HER3) (human, UniProt P21860 20-1342)
T1 construct: whole, on cells; The target is the endogenous HER3 of the cell lines used; also called ErbB3; HER3 protein
Assay: flow cytometry on HCC1569 cells, PE-labelled anti-human secondary antibody, one-site specific binding fit
Description: A human breast cancer cell line HCC1569 (CRL-2330) from ATCC was cultured in an RPMI1640 medium (purchased from Invitrogen Corp., containing 10% […] (manufactured by Invitrogen Corp.) and 2 mM L-glutamine (manufactured by Invitrogen Corp.)). The cells were dissociated from the culture plate using ACCUTASE® SOLUTION (Millipore Corp., SCR005) or EDTA (5 mM, phosphate buffered saline (PBS, 137 mM sodium chloride, 2.7 mM potassium chloride, 1.47 mM potassium dihydrogen phosphate, and 10.5 mM disodium hydrogen phosphate)), and the number of living cells was measured by trypan blue treatment.
The cells of each group were reacted with a primary antibody dilution for 45 minutes on ice and then washed with a FACS buffer. Further, 100 uL of a FACS buffer or a reaction solution of a secondary antibody diluted 1/100 (phycoerythrin (PE)-coupled anti human antibody, Dianova GmbH #709-116-149) was added thereto. The cells were treated for 45 minutes on ice in the dark and then washed with a FACS buffer, and dead cells were excluded using a FACS buffer or a FACS buffer supplemented with 7-aminoactinomycin D (7AAD, Sigma-Aldrich Co. LLC, #A9400, 1.1 ug/mL).
The equilibrium binding affinity KD and the maximum binding strength Bmax were calculated using GraphPad Prism software.

| Binder | Bmax | Kd [nM] |
| --- | --- | --- |
| B1 | 31800 | 1.67 |
| B2 | 28900 | 1.65 |
| B3 | 28400 | 2.76 |

Source: US20220172420A1 (Daiichi Sankyo, published 2022)
